# T1: mouse ASC (mouse, UniProt Q9EPB4 1-193)
# T1 construct: recombinant mASC in ELISA and SPR; endogenous ASC of J774.A1 cells in Western blot and immunofluorescence; also called mASC
# T1 sequence: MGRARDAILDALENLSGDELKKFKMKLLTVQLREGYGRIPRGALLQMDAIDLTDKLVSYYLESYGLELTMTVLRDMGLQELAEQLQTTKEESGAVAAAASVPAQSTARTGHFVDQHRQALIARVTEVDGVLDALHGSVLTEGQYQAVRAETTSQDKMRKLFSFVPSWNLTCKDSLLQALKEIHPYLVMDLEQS
# T2: CARD domain of human ASC (human, UniProt Q9ULZ3 107-195)
# T2 construct: biotinylated in BLI; also called hCARD; human CARD
# T2 sequence: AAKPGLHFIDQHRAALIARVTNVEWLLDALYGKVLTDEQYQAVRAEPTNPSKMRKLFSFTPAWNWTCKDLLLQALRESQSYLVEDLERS
# Legend:
# [1] = biological target: T3, human ASC (apoptosis associated speck-like protein containing a caspase-recruitment domain) (human, UniProt Q9ULZ3 1-195); test: ELISA, coated hASC;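 further: antibody binding to plate-coated recombinant human ASC, read as phosphatase substrate absorbance, EC50 from four-parameter variable-slope fit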
# T3 construct: recombinant hASC in ELISA and SPR; endogenous ASC (cytoplasmic or specks) in Western blot and immunofluorescence; also called hASC; PYCARD
# [2] = biological target: T1, mouse ASC; test: ELISA, coated mASC
# [3] = biological target: T4, PYD domain of human ASC (human, UniProt Q9ULZ3 1-91, limits assumed); test: ELISA, coated hPYD;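 further: monoclonal antibody binding to plate-coated human ASC PYD measured by ELISA, with a phosphatase substrate absorbance read-out and EC50 from a variable slope curve fit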
# T4 construct: biotinylated in BLI; His/MBP-tagged in the alanine ELISA; also called hPYD; human PYD
# T4 sequence (Q9ULZ3 1-91 limits assumed): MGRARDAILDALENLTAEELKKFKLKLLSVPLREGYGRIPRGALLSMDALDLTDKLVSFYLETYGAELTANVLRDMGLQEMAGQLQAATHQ
# [4] = biological target: T2, CARD domain of human ASC; test: ELISA, coated hCARD
# [5] = biological target: T3, human ASC (apoptosis associated …); test: SPR affinity mode, mAb captured;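 further: Single-cycle SPR kinetics with mAbs captured on goat anti-mouse antibody, double-referenced against blank flow cell and buffer cycle, fitted by a 1:1 kinetic model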
# [6] = biological target: T3, human ASC (apoptosis associated …); test: SPR avidity mode, ASC immobilized;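 further: Single-cycle SPR kinetics on Biacore T200, antibodies injected at 1.2–100 nM (3-fold steps), 300 s association, 900 s dissociation, double-referenced, 1:1 kinetic model fit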
Binder,EC50 [1],EC50 [2],binding result [3],EC50 [4],EC50 [3],binding result [4],binding result [2],Kd [5],koff [5],kon [5],Kd [6],koff [6],kon [6]
"ACI-8016-14G5B8-AB1 (antibody, V domains shown, also called 936.14G5B8) VH: EVQLQESGPELVKPGSSVKISCKASGYTFADHYMNWVKQSHGKSLEWIGDINPNNGGSVYNQKFKGKATLTVDKSSSTAYMELRSLTSEDSAVYFCARRRAHYYDGPYFDYWGQGTTLTVSS VL: DIVMTQSQKFMSTSVGDRVSLTCKASQIVGTAVAWYQQKPGQSPKLLIYSASIRYTGVPDRFTGSGSGTDFTLTISNMQSEDLADYFCQQYSNYPTFGAGTKLELK",0.09 nM,0.16 nM,no binding,0.17 nM,,,,,,,,,
"ACI-8016-11A3F3-AB1 (antibody, V domains shown, also called 936.11A3F3) VH: QVQLQQSGAELARPGTSVKLSCKASGYTFISFGLSWVKQRTGQGLEWIGEIYPRIDNPYYNEKFKGKAILTADKSSSTAYMELRSLTSEDSAVYFCARYFTKGNYFDYWGQGTTLTVSS VL: DIQMTQSPASLAASVGETVTITCRASENIYYSLAWYQQKQGKSPQVLIYYANSLEDGVPSRFSGSGSGTQYSLKINSMQPEDTATYFCKQAYDVPFTFGTGTKLELK",0.11 nM,0.63 nM,no binding,0.12 nM,,,,,,,,,
"ACI-8016-3E6B11-AB1 (antibody, V domains shown, also called 936.3E6B11) VH: EVQLQQSGAELVRPGSSVKMSCKTSGYTFTNYGITWVKQRPGQGLEWIGYIYVGNGYTEYNEKFKDKAALTSDTSSSTAYMQLTSLTSDDSTIYFCARIAQGRCFDYWGQGTTLSVSS VL: DIVLTQSPASSAVSLGQRATISCRASQSVSTSSYSYMHWYQQKPGQPPKLLIKYASTLESGVPARFSGSGSGTDFTLNIHPVEEEDTATYYCQHSWELPYMFGGGTKLEIK",0.15 nM,0.15 nM,no binding,0.13 nM,,,,,,,,,
"ACI-8016-29C5E11-AB1 (antibody, V domains shown, also called 936.29C5E11) VH: EVQLQQSGAELVRPGSSVKMSCRTSGYTFTNNGITWVKQRPGQGLEWIGYIYVGNGYTEYNEKFKDKATLTSDTASSTVYMQLNSLTSEDSAIYFCARLDRGRALDYWAQGTTLTVSS VL: DIVLTQSPASLAVSLGQRATISCRASKSVSSSAYSYMHWYQQKPGQPPKLLIHLASNLESGVPARFSGSGSGTDFTLNIHPVEEEDAATYYCQHSWELPYTFGGGTKLEIK",0.16 nM,0.14 nM,no binding,0.14 nM,,,,,,,,,
"ACI-8016-207E8B2-AB1 (antibody, V domains shown) VH: QVQLQQSGAELAKPGASVKLSCKASGYTFTSYWMHWVKQRPGQGLEWIGYINPSSGYTKCNQKFKDKATLTADKSSSTAYMQLSSLTYEDSAVYYCVFPFDYDGFDYWGQGTTLTVSS VL: DVLMTQTPLSLPVSLGDQASISCRSSQSIVHSNGNTYLEWYLQKPGQSPKLLIYKVSNRFSGVPDRFSGSGSGTVFTLKISRVEAEDLGVYYCFQDSHFPFTFGSGTKLEIK",0.1 nM,0.11 nM,,,0.12 nM,no binding,,,,,,,
"ACI-8016-7G3B5-AB1 (antibody, V domains shown, also called 936.7G3B5) VH: EVQLQQSVAELVRPGASVKLSCTASGFNIKNTYMHWVKQRPEQGLEWIGRIDPANGNTKYVPKFQGKATITADTSSKTAYLQLSSLTSEDTAIYYCTRWGFDKDGVVYAMDYWGQGTSVTVSS VL: DVVLTQSPATLSVTPGDSVSLSCRASQSIYNNLHWYQQKSHESPRLLVKYASQSISGIPSRFSGSGSGTDFTLSINSVETEDFGMYFCQQSNSWPLTFGAGTKLELK",0.19 nM,0.17 nM,,,0.16 nM,no binding,,,,,,,
"ACI-8016-19E6D4-AB1 (antibody, V domains shown, also called 936.19E6D4) VH: EVKLVESGGGLVQPGGSLKLSCAASGFTFSDYYMYWVRQNAEKRLEWVAYISSGGDAPFYSDNLKGRFTISRDNAKNTLYLQMSRLQPEDTAMYFCAREGFYYYGLYGMDYWGQGTSVTVSS VL: DIVLSQSPATLSVTPGDSVSLSCRASQSIGDNLHWYQQKSHESPRLIIKSASQSISGIPSRFSGSGSGTDFTLSINIVETEDFGMYFCQQSDTWPLTFGPGTKLELK",0.1 nM,,no binding,0.09 nM,,,no binding,,,,,,
"ACI-8016-2A1B12-AB1 (antibody, V domains shown, also called 936.2A1B12) VH: EVQLQQSGAELVRPGSSVKMSCETSGYTFTTYGLTWVKQRPGQGLEWIGYIYVGNGYTEYNEKFKDKATLTSDTSSSIVYMQLSSLTSEDSAIYFCARLGLRRHFDYWGQGTTLTVSS VL: AIQMTQTTSSLSASLGDRVTISCRASQDISNYLHWYQQKPDGTVKLLIFFTSGLRSGVPSRFSGSGSGTDYSLTISNLEQEDIATYFCQQSILLPWTFGGGTKLEIK",0.17 nM,1.56 nM,,0.13 nM,3.34 nM,,,,,,,,
"ACI-8016-421B10C12D2-AB1 (antibody, V domains shown) VH: EVQLQQSGADLVKPGASVKLSCTASGFNIEDTYIHWVKQRPARGLEWVGRIDPANGNTDYDPKFQGKATMITDTSSNTVYLQVSSLTSEDTAVYFCGRHDGYDMDYWGQGTSVTVSS VL: DIVMSQSPSSLAVSAGEKVTMSCQSSQSLLNGRTRRNYLAWYQQKPGQSPKLLIYWASTRKSGVPDRFTGSGSGTDFTLTITSVQAEDLAVYYCKQSYNLVTFGAGTKLELK",0.06 nM,,,,0.07 nM,no binding,,0.36 nM,0.00017 s⁻¹,470000 M⁻¹ s⁻¹,< 0.01 nM,2.2e-07 s⁻¹,190000 M⁻¹ s⁻¹
"ACI-8016-17H1G2-AB1 (antibody, V domains shown, also called 936.17H1G2) VH: EVQLQQSGAELVRPGSSVKMSCKTSGFTFTSYGISWVIQRPEQGLEWIGYIYIRNGYTEYNEKFKGKATLTSDTSSNTAYMQLSNLASEDSAIYFCVRIHRRFFDYWGQGTTLTVSS VL: DIQMTQTTSSLSASLGDRVTISCSASQGISNYLNWFQQKPNGTVRLLIYYTSSLHSGVPSRFSGSGSGTDYSLTISNLEPEDIATYYCQQYDRLPWTFGGGTKLEIK",0.13 nM,0.19 nM,no binding,0.1 nM,,,,,,,,,
"ACI-8016-2602H6F10-AB1 (antibody, V domains shown) VH: QVQLQQSGAELARPGASVKLSCKASGFSFTSYGISWVKQRTGQGLEWIGQIYLRSSNTYYNEKFKDKATLTADKSSSTVYMELRSLTSEDSAVYFCARYYGSSSDYWGQGTTLTVSS VL: DIQMNQSPSSLSASLGDTITINCHASQNINVWLSWYQQKPGNIPKVLIYQASNLQTGVPTRFSGSGSGTGFTLTISRLQPEDIATYYCQQGQRYPWTFGGGTKLEIK",11.1 nM,4.52 nM,,,2.52 nM,no binding,,,,,,,
"ACI-8016-27A1G4-AB1 (antibody, V domains shown, also called 936.27A1G4) VH: QVQLQQSDAELVKPGASVKISCKVSGYTFTDHTIHWMRQRPEQGLEWIGYIYPGDASSYYNEKFKGKATLTADQSSNTAYIQVNSLTSEDSAVYFCARPLYSYASYYWFAYWGQGTLVTVSA VL: DIQMNQSPSSLSASLGDTITITCHASQNINVWLTWYQQKPGNIPKLLIYKASNLHTDVPSRFSGSGSGTGFTLTISSLQPEDIATYYCQQGQSYPLTFGGGTKLEIK",0.15 nM,0.11 nM,no binding,0.13 nM,,,,,,,,,
"ACI-8016-417E12A8-AB1 (antibody, V domains shown) VH: QVQLQQPGAELVRPGASVILSCKASGYTFTSSWITWVKQRPGQGLEWIGNIYPSDSYTNSNQKFKDKATLTVDKSSSTAYMHLISPTSEDSAVYYCTRKDFVYDAWYFDVWGAGTTVTVSS VL: DIVMTQSQKFMSTSVGDRVTVTCKASQNVGTNVAWYQQRPGQSPKPLIYSASYRNSGVPDRFTGSGSGTDFTLTITNVQSEDLAEYFCQQYNNYPLTFGAGTKLELK",0.07 nM,,,,0.06 nM,no binding,,0.12 nM,2.9e-05 s⁻¹,250000 M⁻¹ s⁻¹,< 0.01 nM,4.1e-07 s⁻¹,110000 M⁻¹ s⁻¹
"ACI-8016-2516A8C6-AB1 (antibody, V domains shown) VH: QVQLQQSGAELARPGASVKLSCKASGHTFTSYGISWVKQRTGQGLEWIGKIYPRSGNTYYDEKFKGKATLTADKPSTTAYMELRSLTSEDSAVYFCATRDYWGQGTTLTVSS VL: QIVLTQSPVIMSASPGEKVTITCSASSSVSYMYWFQQKPGTSPKFWIYSTSNLASGVPARFSGSGSGTSYSLTISRMEAEDAATYYCQQRSRYPWTFGGGTKLEIK",0.26 nM,0.26 nM,,,0.16 nM,no binding,,,,,,,
"ACI-8016-407E10A9-AB1 (antibody, V domains shown) VH: EVQLVESGGGFVKPGGSLKLSCAASGFTFSNYAMSWVRQTPEKRLEWVATIYSGGIFTYYPDSVKGRFTISRDSAKNTLYLQMTSLRSEDTAIYYCARLGGSYWGQGTLVTVSA VL: QAVVTQESALTTSPGETVTLTCRSSTGAVTTNNYANWVQEKPDHFFTGLIGGTDNRPPGVPARFSGSLIGDKAALTITGAQTEDEAIYFCALWYNNHWVFGGGTKLTVL",0.06 nM,,no binding,0.07 nM,,,no binding,0.11 nM,1.5e-05 s⁻¹,130000 M⁻¹ s⁻¹,< 0.01 nM,5.6e-07 s⁻¹,110000 M⁻¹ s⁻¹
